In the experiment the target is transferrin receptor (on Hepa 1-6 cells; in tissues of C57BL/6 wild-type mice) (mouse) (UniProt Q62351). Briefly: cell-based or functional assay.
UniProt Q62351, sequence (Q62351 whole entry): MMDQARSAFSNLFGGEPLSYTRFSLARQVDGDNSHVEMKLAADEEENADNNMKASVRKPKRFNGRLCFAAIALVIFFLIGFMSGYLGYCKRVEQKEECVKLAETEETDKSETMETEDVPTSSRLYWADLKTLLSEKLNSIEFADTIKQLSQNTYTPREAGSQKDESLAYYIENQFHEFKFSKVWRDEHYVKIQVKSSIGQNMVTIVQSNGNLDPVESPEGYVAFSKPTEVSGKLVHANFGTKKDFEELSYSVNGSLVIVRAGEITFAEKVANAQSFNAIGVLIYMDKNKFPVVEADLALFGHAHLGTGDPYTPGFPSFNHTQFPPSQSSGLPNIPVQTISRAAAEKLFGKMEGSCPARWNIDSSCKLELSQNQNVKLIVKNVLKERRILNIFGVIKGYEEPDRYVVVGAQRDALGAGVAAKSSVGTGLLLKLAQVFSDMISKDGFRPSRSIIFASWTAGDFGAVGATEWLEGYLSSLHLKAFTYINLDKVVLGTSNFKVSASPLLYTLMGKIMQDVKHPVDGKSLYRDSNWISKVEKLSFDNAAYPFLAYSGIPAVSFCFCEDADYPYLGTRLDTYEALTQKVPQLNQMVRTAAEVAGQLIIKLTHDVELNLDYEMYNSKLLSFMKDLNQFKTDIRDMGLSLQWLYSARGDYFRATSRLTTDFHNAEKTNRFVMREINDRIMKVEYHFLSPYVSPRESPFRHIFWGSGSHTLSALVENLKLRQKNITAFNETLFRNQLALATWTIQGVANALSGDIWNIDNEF

As to “antiTfR-siHPRT complex: RI7 217 anti-TfR1 Fab (DTX-A-002) covalently linked via a non-cleavable GMBS linker to HPRT siRNA (siHPRT)”, the reduction in HPRT expression in Hepa 1-6 cells (100 nM complex, 72 hours) amounted to 50%; the reduction in HPRT expression in gastrocnemius of C57BL/6 mice (single i.v. dose, 2 mg/kg RNA, day 3) was found to be 31%; the reduction in HPRT expression in heart of C57BL/6 mice (single i.v. dose, 2 mg/kg RNA, day 3) came to 30%.

(Values after patent US20230203180A1.)
